# In the Immune Epitope Database (IEDB):
# How the values were obtained:
# HLA-A*02:01 [1] = experiment: IEDB peptide-MHC binding, cellular MHC/competitive/fluorescence; ≥ and ≤ were set here for values at or beyond the usual limits of such assays
# HLA-A*02:03 = experiment: as above
# HLA-A*68:02 [2] = experiment: as above
# HLA-A*02:02 = experiment: IEDB peptide-MHC binding, purified MHC/competitive/radioactivity; ≥ and ≤ were set here for values at or beyond the usual limits of such assays
# HLA-A*02:06 [3] = experiment: as above
# HLA-A*02:01 [4] = experiment: as above
# HLA-A*02:06 [5] = experiment: IEDB peptide-MHC binding, cellular MHC/competitive/fluorescence; ≥ and ≤ were set here for values at or beyond the usual limits of such assays
# HLA-A*68:02 [6] = experiment: IEDB peptide-MHC binding, purified MHC/competitive/radioactivity; ≥ and ≤ were set here for values at or beyond the usual limits of such assays
# [7] = source organism: Influenza A virus
# [8] = source organism: Vaccinia virus WR
# [9] = source organism: Mammarenavirus choriomeningitidis
# [10] = source organism: Mammarenavirus machupoense
# [11] = source organism: Mammarenavirus brazilense
# [12] = source organism: Mammarenavirus guanaritoense
sequence,measurement,setting,value
CAAMDDFQL,IC50,HLA-A*02:01 [1]; [7],10.9 µM
same,IC50,HLA-A*02:03; [7],22.8 µM
same,IC50,HLA-A*68:02 [2]; [7],5.07 µM
same,IC50,HLA-A*02:02; [7],1.01 µM
same,IC50,HLA-A*02:06 [3]; [7],2.1 µM
VMDTLNGIMM,IC50,HLA-A*02:03; [8],5.16 µM
same,IC50,HLA-A*68:02 [2]; [8],6.92 µM
same,IC50,HLA-A*02:01 [4]; [8],0.033 µM
same,IC50,HLA-A*02:02; [8],0.0076 µM
same,IC50,HLA-A*02:06 [3]; [8],0.403 µM
LSYSQTMLL,IC50,HLA-A*02:01 [1]; [9],8.28 µM
same,IC50,HLA-A*02:03; [9],11.3 µM
same,IC50,HLA-A*68:02 [2]; [9],6.76 µM
same,IC50,HLA-A*02:02; [9],2.11 µM
same,IC50,HLA-A*02:06 [3]; [9],3.72 µM
LNIALVAVSL,IC50,HLA-A*02:03; [10],12.5 µM
same,IC50,HLA-A*02:06 [5]; [10],13.2 µM
same,IC50,HLA-A*02:01 [4]; [10],1.25 µM
same,IC50,HLA-A*02:02; [10],0.18 µM
same,IC50,HLA-A*68:02 [6]; [10],0.52 µM
RTRCKYVGCT,IC50,HLA-A*02:01 [1]; [8],48.5 µM
same,IC50,HLA-A*02:03; [8],12.3 µM
same,IC50,HLA-A*02:06 [5]; [8],11.6 µM
same,IC50,HLA-A*02:02; [8],0.149 µM
same,IC50,HLA-A*68:02 [6]; [8],4.69 µM
KSYFTNAAL,IC50,HLA-A*02:03; [10],7.18 µM
same,IC50,HLA-A*02:06 [5]; [10],12 µM
same,IC50,HLA-A*02:01 [4]; [10],4.97 µM
same,IC50,HLA-A*02:02; [10],0.593 µM
same,IC50,HLA-A*68:02 [6]; [10],0.106 µM
KQIMECSRML,IC50,HLA-A*02:03; [8],29.6 µM
same,IC50,HLA-A*68:02 [2]; [8],7.47 µM
same,IC50,HLA-A*02:01 [4]; [8],0.357 µM
same,IC50,HLA-A*02:02; [8],0.055 µM
same,IC50,HLA-A*02:06 [3]; [8],0.06 µM
IASKINNNRI,IC50,HLA-A*02:01 [1]; [8],30.8 µM
same,IC50,HLA-A*02:03; [8],18.5 µM
same,IC50,HLA-A*02:06 [5]; [8],9.42 µM
same,IC50,HLA-A*02:02; [8],0.732 µM
same,IC50,HLA-A*68:02 [6]; [8],0.163 µM
LNISGYNYSL,IC50,HLA-A*02:01 [1]; [11],10.6 µM
same,IC50,HLA-A*02:03; [11],49 µM
same,IC50,HLA-A*68:02 [2]; [11],12.9 µM
same,IC50,HLA-A*02:02; [11],0.077 µM
same,IC50,HLA-A*02:06 [3]; [11],1.1 µM
DTCLLAISA,IC50,HLA-A*02:01 [1]; [8],6.69 µM
same,IC50,HLA-A*02:03; [8],6.45 µM
same,IC50,HLA-A*02:06 [5]; [8],25.2 µM
same,IC50,HLA-A*02:02; [8],4.33 µM
same,IC50,HLA-A*68:02 [6]; [8],0.316 µM
MNNVVQALT,IC50,HLA-A*02:01 [1]; [12],7.48 µM
same,IC50,HLA-A*02:03; [12],21.5 µM
same,IC50,HLA-A*02:06 [5]; [12],≥ 70 µM
same,IC50,HLA-A*02:02; [12],2.29 µM
same,IC50,HLA-A*68:02 [6]; [12],0.281 µM
CTSEIQNVT,IC50,HLA-A*02:01 [1]; [8],13.5 µM
same,IC50,HLA-A*02:03; [8],5.19 µM
same,IC50,HLA-A*02:06 [5]; [8],10.2 µM
same,IC50,HLA-A*02:02; [8],0.188 µM
same,IC50,HLA-A*68:02 [6]; [8],0.09 µM
DAEFVMCLEA,IC50,HLA-A*02:01 [1]; [8],9.14 µM
same,IC50,HLA-A*02:03; [8],7.3 µM
same,IC50,HLA-A*02:06 [5]; [8],12.7 µM
same,IC50,HLA-A*02:02; [8],2.41 µM
same,IC50,HLA-A*68:02 [6]; [8],1.59 µM
